Data published in patent US20080261892A1, “Acid Addition Salts of Ac-Phscn-Nh2” (priority 2005, published 2008).

Experiments:
Assay type in all cases: physicochemical
[1] = Solution phase stability of free base and hydrochloride salt (monomer vs dimer by HPLC), Example 15; conditions: for % dimer / % monomer: solution in distilled water, 25±1° C.
Procedure: A 1.657 mM solution of Ac—PHSCN—NH2 in distilled water and a 1.653 mM solution of the hydrochloride salt of Ac—PHSCN—NH2 in distilled water were placed in a water bath at 25±1° C. Aliquots (800 μL) were periodically removed and the amount of dimerization was determined by HPLC.
(§1) All HPLC spectra were taken on a Waters HPLC that included Breeze software, a Waters 2487 Dual λ Absorbance Detector, a Waters 1525 Binary HPLC Pump, and a Waters 717 plus Autosampler. The column was a Phenomenex Synergi 4μ Hydro-RP 80A, 250×4.60 mm 4μ micron. The 40 minute gradient that was used is described in the table below.
Mobile Phase A: 0.1% TFA in acetonitrile Mobile Phase B: 0.1% TFA in water
(§2) The HPLC peak for Ac-Pro-His-Ser-Cys-Asn-NH2 monomer at approximately 9.2 minutes, and the peak for ATN-161 dimer at approximately 10.0 minutes were integrated in order to determine the percentage of these two species in each sample.

[2] = Solid phase stability of free base, methanesulfonic acid salt and nitric acid salt (HPLC), Example 18; conditions: solid stored at 25±0.5° C.
Procedure: as §1

[3] = Solid phase stability of free base and hydrochloride salt (monomer vs dimer by HPLC), Example 16; conditions: for % dimer / % monomer: solid stored at 25±1° C.
Procedure: as §1, §2
Samples of 0.8-1.2 mg of Ac—PHSCN—NH2 and Ac—PHSCN—NH2 hydrochloride salt were weighed into HPLC sample vials and stored at 25±1° C. A 0 h time point was taken. Samples were periodically removed and diluted with distilled water to give a 1 mg/mL solution. The amount of dimerization was determined by HPLC as described in Example 15. The results are illustrated graphically in FIG. 3.

[4] = Solution phase stability of free base, methanesulfonic acid salt and nitric acid salt (HPLC), Example 17; conditions: solution in distilled water, 25±0.5° C.
Procedure: as §1
A t=0 h timepoint was taken for each solution. The volumetric flasks were placed in a water bath at 25±0.5° C. and, periodically, a 0.7 mL aliquot was removed and the solution analyzed by HPLC as described in Example 15.

Ac-Pro-His-Ser-Cys-Asn-NH2 (Ac-PHSCN-NH2) [Free Base]
conversion to other products (e.g., the dimer) ([1]; in solution after more than 500 hours at room temperature): completely converted to other products | % dimer ([1]; 0 h): 6.7% | % monomer ([1]; 0 h): 93.3% | % dimer ([1]; 69 h): 17.4% | % monomer ([1]; 69 h): 82.6% | % dimer ([1]; 140 h): 23.5% | % monomer ([1]; 140 h): 76.5% | % dimer ([1]; 188 h): 28.1% | % monomer ([1]; 188 h): 71.9% | % dimer ([1]; 236 h): 34.3% | % monomer ([1]; 236 h): 65.7% | % dimer ([1]; 309 h): 38.9% | % monomer ([1]; 309 h): 61.1% | % dimer ([1]; 357 h): 43.3% | % monomer ([1]; 357 h): 56.7% | % dimer ([1]; 404 h): 51.4% | % monomer ([1]; 404 h): 48.6% | % dimer ([1]; 477 h): 68.7% | % monomer ([1]; 477 h): 31.3% | % dimer ([1]; 525 h): 83.2% | % monomer ([1]; 525 h): 16.8% | % dimer ([1]; 622 h): 100% | % monomer ([1]; 622 h): 0% | % dimer ([2]; 0 h): 6.1% | % monomer ([2]; 0 h): 93.9% | % dimer ([2]; 161 h): 11.6% | % monomer ([2]; 161 h): 88.4% | % dimer ([2]; 335 h): 12.5% | % monomer ([2]; 335 h): 87.5% | % dimer ([2]; 498 h): 14.6% | % monomer ([2]; 498 h): 85.4% | % dimer ([2]; 670 h): 14.8% | % monomer ([2]; 670 h): 85.2% | % dimer ([2]; 832 h): 15.7% | % monomer ([2]; 832 h): 84.3% | % dimer ([2]; 1003 h): 17.0% | % monomer ([2]; 1003 h): 83.0% | % dimer ([2]; 1170 h): 16.5% | % monomer ([2]; 1170 h): 83.5% | % dimer ([2]; 1363 h): 17.6% | % monomer ([2]; 1363 h): 82.4% | % dimer ([2]; 1506 h): 18.6% | % monomer ([2]; 1506 h): 81.4% | % dimer ([2]; 1698 h): 19.2% | % monomer ([2]; 1698 h): 80.8% | % pure in the solid phase ([3]; solid phase, after more than 800 hours at room temperature, i.e., 23-25° C.): greater than 82% | % dimer ([3]; 0 h): 8.5% | % monomer ([3]; 0 h): 91.5% | % dimer ([3]; 73 h): 10.0% | % monomer ([3]; 73 h): 90.0% | % dimer ([3]; 143 h): 11.5% | % monomer ([3]; 143 h): 88.5% | % dimer ([3]; 243 h): 12.7% | % monomer ([3]; 243 h): 87.3% | % dimer ([3]; 312 h): 14.0% | % monomer ([3]; 312 h): 86.0% | % dimer ([3]; 410 h): 13.8% | % monomer ([3]; 410 h): 86.2% | % dimer ([3]; 576 h): 15.2% | % monomer ([3]; 576 h): 84.8% | % dimer ([3]; 677 h): 16.1% | % monomer ([3]; 677 h): 83.9% | % dimer ([3]; 818 h): 17.9% | % monomer ([3]; 818 h): 82.1% | % dimer ([4]; 0 h): 7.8% | % monomer ([4]; 0 h): 92.2% | % dimer ([4]; 69 h): 26.1% | % monomer ([4]; 69 h): 73.9% | % dimer ([4]; 140 h): 30.7% | % monomer ([4]; 140 h): 69.3% | % dimer ([4]; 213 h): 35.0% | % monomer ([4]; 213 h): 65.0% | % dimer ([4]; 332 h): 42.5% | % monomer ([4]; 332 h): 57.5% | % dimer ([4]; 408 h): 46.4% | % monomer ([4]; 408 h): 53.6% | % dimer ([4]; 479 h): 51.0% | % monomer ([4]; 479 h): 49.0% | % dimer ([4]; 549 h): 56.2% | % monomer ([4]; 549 h): 43.8% | % dimer ([4]; 645 h): 68.9% | % monomer ([4]; 645 h): 31.1% | % dimer ([4]; 720 h): 82.2% | % monomer ([4]; 720 h): 17.8% | % dimer ([4]; 836 h): 98.5% | % monomer ([4]; 836 h): 1.5%

Ac-Pro-His-Ser-Cys-Asn-NH2 Methanesulfonic Acid Salt (Ac-PHSCN-NH2; also: methanesulfonic acid salt)
% dimer ([2]; 0 h): 6.8% | % monomer ([2]; 0 h): 93.2% | % dimer ([2]; 161 h): 7.2% | % monomer ([2]; 161 h): 92.8% | % dimer ([2]; 335 h): 7.5% | % monomer ([2]; 335 h): 92.5% | % dimer ([2]; 498 h): 7.0% | % monomer ([2]; 498 h): 93.0% | % dimer ([2]; 670 h): 7.7% | % monomer ([2]; 670 h): 92.3% | % dimer ([2]; 832 h): 7.2% | % monomer ([2]; 832 h): 92.8% | % dimer ([2]; 1003 h): 7.2% | % monomer ([2]; 1003 h): 92.8% | % dimer ([2]; 1170 h): 7.3% | % monomer ([2]; 1170 h): 92.7% | % dimer ([2]; 1363 h): 8.6% | % monomer ([2]; 1363 h): 91.4% | % dimer ([2]; 1506 h): 7.6% | % monomer ([2]; 1506 h): 92.4% | % dimer ([2]; 1698 h): 8.1% | % monomer ([2]; 1698 h): 91.9% | % dimer ([4]; 0 h): 7.4% | % monomer ([4]; 0 h): 92.6% | % dimer ([4]; 69 h): 22.6% | % monomer ([4]; 69 h): 77.4% | % dimer ([4]; 140 h): 30.3% | % monomer ([4]; 140 h): 69.7% | % dimer ([4]; 213 h): 37.2% | % monomer ([4]; 213 h): 62.8% | % dimer ([4]; 332 h): 48.0% | % monomer ([4]; 332 h): 52.0% | % dimer ([4]; 408 h): 54.5% | % monomer ([4]; 408 h): 45.5% | % dimer ([4]; 479 h): 60.5% | % monomer ([4]; 479 h): 39.5% | % dimer ([4]; 549 h): 66.7% | % monomer ([4]; 549 h): 33.3% | % dimer ([4]; 645 h): 74.3% | % monomer ([4]; 645 h): 25.7% | % dimer ([4]; 720 h): 79.5% | % monomer ([4]; 720 h): 20.5% | % dimer ([4]; 836 h): 84.8% | % monomer ([4]; 836 h): 15.2%

Ac-Pro-His-Ser-Cys-Asn-NH2, hydrochloride salt (Ac-PHSCN-NH2; also: hydrochloride salt)
% dimer ([1]; 0 h): 0% | % monomer ([1]; 0 h): 100% | % dimer ([1]; 69 h): 3.3% | % monomer ([1]; 69 h): 96.7% | % dimer ([1]; 140 h): 6.1% | % monomer ([1]; 140 h): 93.9% | % dimer ([1]; 188 h): 6.4% | % monomer ([1]; 188 h): 93.6% | % dimer ([1]; 236 h): 6.8% | % monomer ([1]; 236 h): 93.2% | % dimer ([1]; 309 h): 6.7% | % monomer ([1]; 309 h): 93.3% | % dimer ([1]; 357 h): 6.7% | % monomer ([1]; 357 h): 93.3% | % dimer ([1]; 404 h): 7.3% | % monomer ([1]; 404 h): 92.7% | % dimer ([1]; 477 h): 8.4% | % monomer ([1]; 477 h): 91.6% | % dimer ([1]; 525 h): 9.0% | % monomer ([1]; 525 h): 91.0% | % dimer ([1]; 622 h): 10.7% | % monomer ([1]; 622 h): 89.3% | % dimer ([3]; 0 h): 0% | % monomer ([3]; 0 h): 100% | % dimer ([3]; 73 h): 0% | % monomer ([3]; 73 h): 100% | % dimer ([3]; 143 h): 0% | % monomer ([3]; 143 h): 100% | % dimer ([3]; 243 h): 0% | % monomer ([3]; 243 h): 100% | % dimer ([3]; 312 h): 0% | % monomer ([3]; 312 h): 100% | % dimer ([3]; 410 h): 0% | % monomer ([3]; 410 h): 100% | % dimer ([3]; 576 h): 0.3% | % monomer ([3]; 576 h): 99.7% | % dimer ([3]; 677 h): 0.7% | % monomer ([3]; 677 h): 99.3% | % dimer ([3]; 818 h): 0% | % monomer ([3]; 818 h): 100%
